In the Human Domainome abundance scans (Beltran et al. 2025):
± gives the uncertainty stated by the source.

B1: Friend leukemia integration 1 transcription factor, residues 116 to 197; numbered along this chain, Q01543 (parent)
chain: NMTTNERRVIVPADPTLWTQEHVRQWLEWAIKEYSLMEIDTSFFQNMDGKELCKMNKEDFLRATTLYNTEVLLSHLSYLRES

Variants of: B1
Experiment: abundance fitness (aPCA) (normalised: wild type 0, dead -1); higher = more abundant; growth selection in yeast, the domain comes from the species named
Conditions: Homo sapiens
NMTTNERRVIVPADPTLWTQEHVRQWLEWAIKEYSLMEIDTSFFQNMDGKEICKMNKEDFLRATTLYNTEVLLSHLSYLRES [L52I] gave an abundance fitness of -0.608 ± 0.35. For NMTTNERRVIVPADPTLWTQEHVRQWLEWAIKEYSLMEIDTSFFQNMDGKECCKMNKEDFLRATTLYNTEVLLSHLSYLRES [L52C], the abundance fitness was -0.692 ± 0.38. In the case of NMTTNERRVIVPADPTLWTQEHVRQWLEWAIKEYSLMEIDTSFFQNMDGKEWCKMNKEDFLRATTLYNTEVLLSHLSYLRES [L52W], the abundance fitness is reported as -0.943 ± 0.21. NMTTNERRVIVPADPTLWTQEHVRQWLEWAIKEYSLMEIDTSFFQNMDGKEGCKMNKEDFLRATTLYNTEVLLSHLSYLRES [L52G] gave an abundance fitness of -0.915 ± 0.15. For NMTTNERRVIVPADPTLWTQEHVRQWLEWAIKEYSLMEIDTSFFQNMDGKEMCKMNKEDFLRATTLYNTEVLLSHLSYLRES [L52M], the abundance fitness was -0.277 ± 0.17. NMTTNERRVIVPADPTLWTQEHVRQWLEWAIKEYSLMEIDTSFFQNMDGKEVCKMNKEDFLRATTLYNTEVLLSHLSYLRES [L52V] gave an abundance fitness of -0.192 ± 0.071. Variant NMTTNERRVIVPADPTLWTQEHVRQWLEWAIKEYSLMEIDTSFFQNMDGKERCKMNKEDFLRATTLYNTEVLLSHLSYLRES [L52R] has an abundance fitness of -1.03 ± 0.16. Work on NMTTNERRVIVPADPTLWTQEHVRQWLEWAIKEYSLMEIDTSFFQNMDGKEFCKMNKEDFLRATTLYNTEVLLSHLSYLRES [L52F] yielded an abundance fitness of -0.072 ± 0.12. Variant NMTTNERRVIVPADPTLWTQEHVRQWLEWAIKEYSLMEIDTSFFQNMDGKESCKMNKEDFLRATTLYNTEVLLSHLSYLRES [L52S] has an abundance fitness of -0.991 ± 0.18. With NMTTNERRVIVPADPTLWTQEHVRQWLEWAIKEYSLMEIDTSFFQNMDGKEPCKMNKEDFLRATTLYNTEVLLSHLSYLRES [L52P] the abundance fitness was -0.627 ± 0.13. NMTTNERRVIVPADPTLWTQEHVRQWLEWAIKEYSLMEIDTSFFQNMDGKETCKMNKEDFLRATTLYNTEVLLSHLSYLRES [L52T] showed an abundance fitness of -0.928 ± 0.29. With NMTTNERRVIVPADPTLWTQEHVRQWLEWAIKEYSLMEIDTSFFQNMDGKEECKMNKEDFLRATTLYNTEVLLSHLSYLRES [L52E] the abundance fitness was -0.976 ± 0.29. NMTTNERRVIVPADPTLWTQEHVRQWLEWAIKEYSLMEIDTSFFQNMDGKEACKMNKEDFLRATTLYNTEVLLSHLSYLRES [L52A] gave an abundance fitness of -0.602 ± 0.26. Variant NMTTNERRVIVPADPTLWTQEHVRQWLEWAIKEYSLMEIDTSFFQNMDGKELCHMNKEDFLRATTLYNTEVLLSHLSYLRES [K54H] has an abundance fitness of -0.494 ± 0.26. Work on NMTTNERRVIVPADPTLWTQEHVRQWLEWAIKEYSLMEIDTSFFQNMDGKELCYMNKEDFLRATTLYNTEVLLSHLSYLRES [K54Y] yielded an abundance fitness of -0.359 ± 0.16. Work on NMTTNERRVIVPADPTLWTQEHVRQWLEWAIKEYSLMEIDTSFFQNMDGKELCRMNKEDFLRATTLYNTEVLLSHLSYLRES [K54R] yielded an abundance fitness of -0.063 ± 0.078. Work on NMTTNERRVIVPADPTLWTQEHVRQWLEWAIKEYSLMEIDTSFFQNMDGKELCPMNKEDFLRATTLYNTEVLLSHLSYLRES [K54P] yielded an abundance fitness of -0.687 ± 0.16. Variant NMTTNERRVIVPADPTLWTQEHVRQWLEWAIKEYSLMEIDTSFFQNMDGKELCSMNKEDFLRATTLYNTEVLLSHLSYLRES [K54S] has an abundance fitness of -0.01 ± 0.07. With NMTTNERRVIVPADPTLWTQEHVRQWLEWAIKEYSLMEIDTSFFQNMDGKELCQMNKEDFLRATTLYNTEVLLSHLSYLRES [K54Q] the abundance fitness was -0.057 ± 0.095. Work on NMTTNERRVIVPADPTLWTQEHVRQWLEWAIKEYSLMEIDTSFFQNMDGKELCLMNKEDFLRATTLYNTEVLLSHLSYLRES [K54L] yielded an abundance fitness of -0.017 ± 0.049. In the case of NMTTNERRVIVPADPTLWTQEHVRQWLEWAIKEYSLMEIDTSFFQNMDGKELCGMNKEDFLRATTLYNTEVLLSHLSYLRES [K54G], the abundance fitness is reported as -0.015 ± 0.075. Variant NMTTNERRVIVPADPTLWTQEHVRQWLEWAIKEYSLMEIDTSFFQNMDGKELCNMNKEDFLRATTLYNTEVLLSHLSYLRES [K54N] has an abundance fitness of 0.02 ± 0.18. With NMTTNERRVIVPADPTLWTQEHVRQWLEWAIKEYSLMEIDTSFFQNMDGKELCEMNKEDFLRATTLYNTEVLLSHLSYLRES [K54E] the abundance fitness was 0.1 ± 0.094. In the case of NMTTNERRVIVPADPTLWTQEHVRQWLEWAIKEYSLMEIDTSFFQNMDGKELCMMNKEDFLRATTLYNTEVLLSHLSYLRES [K54M], the abundance fitness is reported as 0.021 ± 0.073. NMTTNERRVIVPADPTLWTQEHVRQWLEWAIKEYSLMEIDTSFFQNMDGKELCVMNKEDFLRATTLYNTEVLLSHLSYLRES [K54V] gave an abundance fitness of -0.14 ± 0.063. NMTTNERRVIVPADPTLWTQEHVRQWLEWAIKEYSLMEIDTSFFQNMDGKELCWMNKEDFLRATTLYNTEVLLSHLSYLRES [K54W] gave an abundance fitness of -0.396 ± 0.075. With NMTTNERRVIVPADPTLWTQEHVRQWLEWAIKEYSLMEIDTSFFQNMDGKELCTMNKEDFLRATTLYNTEVLLSHLSYLRES [K54T] the abundance fitness was -0.204 ± 0.085. In the case of NMTTNERRVIVPADPTLWTQEHVRQWLEWAIKEYSLMEIDTSFFQNMDGKELCDMNKEDFLRATTLYNTEVLLSHLSYLRES [K54D], the abundance fitness is reported as 0.098 ± 0.19. Variant NMTTNERRVIVPADPTLWTQEHVRQWLEWAIKEYSLMEIDTSFFQNMDGKELCKENKEDFLRATTLYNTEVLLSHLSYLRES [M55E] has an abundance fitness of -0.805 ± 0.19. NMTTNERRVIVPADPTLWTQEHVRQWLEWAIKEYSLMEIDTSFFQNMDGKELCKKNKEDFLRATTLYNTEVLLSHLSYLRES [M55K] gave an abundance fitness of 0.021 ± 0.14. NMTTNERRVIVPADPTLWTQEHVRQWLEWAIKEYSLMEIDTSFFQNMDGKELCKGNKEDFLRATTLYNTEVLLSHLSYLRES [M55G] showed an abundance fitness of -0.75 ± 0.083. NMTTNERRVIVPADPTLWTQEHVRQWLEWAIKEYSLMEIDTSFFQNMDGKELCKNNKEDFLRATTLYNTEVLLSHLSYLRES [M55N] gave an abundance fitness of -0.752 ± 0.48. Variant NMTTNERRVIVPADPTLWTQEHVRQWLEWAIKEYSLMEIDTSFFQNMDGKELCKANKEDFLRATTLYNTEVLLSHLSYLRES [M55A] has an abundance fitness of -0.119 ± 0.066.
